In patent US20230174626A1 (GlaxoSmithKline, published 2023):

B1: humanized 2C7 mAb (antibody, human IgG1, kappa, V domains shown)
VH: EVQLQQSGPELEKPGASVKISCKASGYSFTGYNMNWVKQSNGKSLEWIGNIDPYFGGTSYNQKFKGKATLTVDKSSSTAYMELKSLTSEDSAVYYCARHYGYFPWFAYWGQGTLVTVSA
VL: DIVLTQSPASLAVSLGQRATISCRASESVDSSGNSFMHWYQQKPGQPPKLLIYRASNLESGIPARFSGSGSRTDFTLTINPVGADDVATYYCQQSNEDPWTFGGGTKLEIKR
B2: humanized 26B6 mAb (antibody, human IgG1, kappa, V domains shown)
VH: EVQLVESGGGLVKPGGSLKLSCAASGFTITDYYIYWLRQTPEKKLEWVAAISDGGRYTDYPDSVKGRFTMSSDNAKTNLYLQMGSLQSDDTGMYYCARWASYGYHWYFDVWGAGTTVTVSS
VL: DIQMTQTTSSLSASLGDRVTISCSASQDISNYINWYQQKRDGTVKLLIYDSSSLHSGVPSRFSGSGSGTDYSLTISNLEPEDFATYFCQQYSNLPPTFGGGTNLEIKR
B3: humanized 23C2 mAb (antibody, human IgG1, kappa, V domains shown)
VH: DVQLQESGPGLVKPSQSLSLTCSVTGYSIKSGYYWNWIRQFPGNKLEWMGYISYGGDFTYNPSLKNRISITRDTSKNQFFLKLNSVTTEDTATYFCVREPNWESYFDIWGAGTTVTVSS
VL: DIQMTQSPASLSASVGETVTITCRASDNIYSYLTWYHQKQGKSPHLLVYNAKTLPEGVPLRFSGTGSGTQFSLKINSLQPEDFGIYFCLHDYGFPRTFGGGTILEVKR

Assays:
[1] = target: HCMV glycoprotein H (gH) on TB40 virus (Human Cytomegalovirus (HCMV), TB40 virus); assay: cell-based or functional assay
[2] = target: ULs (UL128, UL130, UL131A of the HCMV Pentamer) on TB40 virus (Human Cytomegalovirus (HCMV), TB40 virus); assay: cell-based or functional assay

Binder | IC50 (µg/ml), HCMV TB40 neutralization on ARPE-19 epithelial cells [1] | IC50 (µg/ml), HCMV TB40 neutralization on MRC-5 fibroblasts [1] | IC50 (µg/ml), HCMV TB40 neutralization on ARPE-19 epithelial cells [2] | IC50 (µg/ml), HCMV TB40 neutralization on MRC-5 fibroblasts [2]
B1 | 0.0915 µg/mL | 0.53 µg/mL |  | 
B2 |  |  | 0.00407 µg/mL | > 10 µg/mL
B3 |  |  | 0.0031 µg/mL | > 10 µg/mL
